{"source": "a protein production outcome set (Wang et al. 2014)", "data": [{"experiment": "label from the status in PepcDB records", "values": [{"sequence": "MSTDSPLRTTASTCCYCGVGCGVLIEHDGERILGVQGDPRHPANFGRLCSKGASLHLTGDLQARALYPQLRLGKQLARARSDWESALEHAAGRFAETIREHGPDSVAFYISGQLLTEDYYAFNKLARALVGTNNIDSNSRLCMSSAVVGYKRSLGADAPPCSYEDLDCADCVLIAGSNMAFAHPVLFRRLEAAKAARPEMRIVVIDPRRTDTCELADLHLALLPGTDVALFHGILHILLWEDWIDRSFIAEHTEGFADLKELVRDYTPAAVADICGIDRADLQRCAEWIGRSPRFLSLWCMGLNQSSAGSAKNSALINLHLATGKIGRAGCGPFSLTGQPNAMGGRETGSLANLLPGHREAADPGHRAEVAHYWGVEQLPTSPGLSAIELFDAVHDGRIKALWIACTNPAQSLPDQRKIHEALARCPFVVVQEAFAGTETCQYADLLLPAASWGEKEGSVTNSERRISHVRRAVPPPGEARQDWNIVCDFARRLEGHLRPAKPGLFAFADSRSLFDEYKLLTAGRDLDLSGLSYALLDRLGPQQWPFPTGAEQGTARLYADGRFPTASGRAQLVAEPYRAAQEKRDARYPLTLNTGRLRDQWHGMSRTGTCARLFGHEEEALVHLHPEELRRRQLLDGQLVRLKSRRGALVLPVSADDSVRPGQAFLPMHWGDRFLKGLGCNVLTLPAFDPLSKQPELKHAGVQVESVELPWRLFALVETDIQARFEALRALCEVFDHASFSLAGRERPALLVSAAHHEAPGADLLERIDRQLELLDGPILAYDDPRRAIGKRVRLEDGRIVAVRLAGETLARDWLKELWLTGRADSELRRWLLAPLGAAPGRPSQGAGGKTLCSCQNVSQQTVLGGIARGLDLDGLKREFGCGTGCGSCVPEIKRLLAAP", "protein production": "failed"}, {"sequence": "MSTDVSSAENEGGATVRTARVPKYYRLKKHLLDMTRTQTPGTPVPPERTLAAEFDTSRTTVRQALQELVVEGRLERIQGKGTFVAKPKVSQALQLTSYTEDMRAQGLEPTSQLLDIGYITADDRLAGLLDITAGGRVLRIERLRMANGEPMAIETTHLSAKRFPALRRSLVKYTSLYTALAEVYDVHLAEAEETIETSLATPREAGLLGTDVGLPMLMLSRHSQDRTGQPVEWVRSVYRGDRYKFVARLKRPQD", "protein production": "not failed"}, {"sequence": "MSTEDALCFTGEEYARHVREYWRGVAESDGFDSEDIRSPVVLTGLFHYDCQSGRRYPDPLLVKRYALLGLHRFNILQGTSFELDALQKFNKTMNLTSSYYITLLANEPGAIPLQKTFQVRVDERKYDTLDLTVAIARLKKDQNEAAETTKEPFVPHFCCSAVSDGVFQGPLPDWPSDDALRHDRNRFYELEKSEWQATDWISLYLELLILATDRGMFGVAQTGLPQVQILKVVIETEEENEKPLDKRLNARRAHVYITFTGLPKSPRLVEIGEHVERKAIIRRVIDDSGYLTLLGKFWSGKDTEQRSKTRQSEEKVESSQKRSRLC", "protein production": "failed"}, {"sequence": "MSTIFDIRNLRLPQLSRASVVIGSLVVVLALAAGIVGVRLYQKLTNNTVVAYFTQANALYVGDKVQIMGLPVGSIDKIEPAGDKMKVTFHYQNKYKVPANASAVILNPTLVASRNIQLEPPYRGGPVLADNAVIPVERTQVPTEWDELRDSVSHIIDELGPTPEQPKGPFGEVIEAFADGLAGKGKQINTTLNSLSQALNALNEGRGDFFAVVRSLALFVNALHQDDQQFVALNKNLAEFTDRLTHSDADLSNAIQQFDSLLAVARPFFAKNREVLTHDVNNLATVTTTLLQPDPLDGLETVLHIFPTLAANINQLYHPTHGGVVSLSAFTNFANPMEFICSSIQAGSRLGYQESAELCAQYLAPVLDAIKFNYFPFGLNVASTASTLPKEIAYSEPRLQPPNGYKDTTVPGIWVPDTPLSHRNTQPGWVVAPGMQGVQVGPITQGLLTPESLAELMGGPDIAPPSSGLQTPPGPPNAYDEYPVLPPIGLQAPQVPIPPPPPGPDVIPGPVPPTPAPVGAPLPAEAGGGQ", "protein production": "failed"}, {"sequence": "MSTKELLFSFHGRIDRKTYWIWNVIYYISIIGFGAGISKLFPAFSYLLLPIFLLVLLIPDLAITTKRWHDRDKSIYWLGLNIPLVIGRIATPMTSPMAQEPSTPQLFIASISLICGLWILIECGFLKGTSGPNKYGPEPQ", "protein production": "not failed"}, {"sequence": "MSTLRATETHRASQSAWEVFLVFLRLGLTSFGGPVAHLGYFRDAFVTRRRWLTEHAYSDIVALCQFLPGPASSQVGMVVGLSRAGYPGALAAWVGFTLPSAIALILFALGLSHYGNLVPPSALHGLKVAAVAVVAQAVWGMARSLCPDAPRITLMILAAVAVTLIPSPWCQVGVMVVAGMVGAQRFRTAQVPPHEPLSIPVGHGAAIGFLLLFAGLLAGLPVVASLIPNHALALVDAFYRAGALVFGGGHVVLPLLQATVVPTGWVNNDTFLAGYGAAQAVPGPLFTFAAFLGAAGGPAPTGWIGGIVCLLAIFAPSFLLVFGALPFWERLRRHAGTRAALAGVNAAVVGLLLSALYQPVWTSAIHAPADFALALLALAALTVWRVPPWAVVTGCALAGWGMHVGGVA", "protein production": "failed"}, {"sequence": "MSTMTATSGRAKRPQKPITLVGVDVYVITEDGIPKFDEYGPFKIEFISNRGTKVWPGYVSPDLMLVNWYRCRFTATRPVTDKDVDAFVGELGKKHLWSAVQKLWNYGDEAGFSKAY", "protein production": "failed"}, {"sequence": "MSTPAPEQMLSAWQVGIAALLILVNGALSIGLGLGLERRLAWAAVRTVVQLLLIGFVLQWVFASAHWAVVLAVIALMTLIAGHATGSRGARDYAGLRLDGTLSVFGSTWLIGAIGLVAVLQARPWYTPQYAIPIMGMILGNTLTGVGLALERMTGELIATRDQVETLLALGGTRWEAARNAARAAVRAGMTPIINQMSVVGVVSLPGMMTGQVLAGQSPLEAVRYQIVIMFLLAASSGLGTVAAVLLAYRRLFSREHQLLSARIVQRAPGVH", "protein production": "failed"}, {"sequence": "MSTTDNAFSATLEPIDTPKTTLKQRWWHIMDNWKVGIVPLPLFLLAGGLIALDCLGGKLPSDIVVMVATLAFFGFACGEFGKRLPVLGKLGAAAICATFIPSALVHYGLLPDVVIESTTKFYKSTNILYLYICCIIVGSIMSMNRTTLIQGFLKIFFPMLCGEVVGMLVGIGVGTLLGMEPFQVFFFIVLPIMAGGVGEGAIPLSMGYAALMHMEQGVALGRVLPMVMLGSLTAIVISGCLNQLGKRFPHLTGEGQLMPNRSHETRSLSESEGVSGKTDVGTLASGALLAVLLYMMGMLGHKLIGLPAPVGMLFLAVLLKLANVVSPRLQEGSQMVYKFFRTAVTYPILFAVGVAITPWQELVNAFTLTNLLVIVSTVSALVATGFLVGKKIGMHPIDVAIVSCCQSGQGGTGDVAILTAGNRMSLMPFAQIATRIGGAINVSLGLLFLSHYLA", "protein production": "failed"}, {"sequence": "MSTTGKNTTAAATDTVTERPPVFSVDGLWKVFGPKAARVPADPDLTALSPAELRSRTGCTAAVADVSFDVRKGEVFVVMGLSGSGKSTLVRCLTRLIEPTAGSIVIDGEDVRAMDRSRLRELRRHRAAMVFQHFGLLPHRTVLDNVAYGLEVQGMGRAERRERAAAIVAKVGLEGLEQRRPGQLSGGQRQRVGLARALAVDPEVLLFDEPFSALDPLIRRDMQEEVVRLHREEGRTMVFITHDLQEALKLGDRIALMRDGRVVQLGTPEEIVGSPADDYVREFVRDVPREQVLTVRTAMRPAANADEAGTGPAIRPEATVSEAIEAVARAGSAARVMSDGRCLGVVDAADLLSVVAGTAAAGSRAAGAARVGAAATGERREPTDPRPATTEEPV", "protein production": "failed"}, {"sequence": "MSTTLLRTIQLNQFSLLGTSLLRRRRSNNFSVRSCGSQTTTTHEAKQSSPTRVAPKNHKSNQLDEILRDYEAVIGIETHVQLSTLTKAFCSCSNNYGSYPNTSICPVCMGLPGALPVLNSKVVEFGVRLGLALNCDLSLKSKFDRKQYFYPDLPKGYQISQFDIPIASGGYVDVDIPLEFGGGHRRFGITRVHMEEDAGKLLHSDTGDYSQVDLNRAGVPLLEIVSEPDMRSGIEAAEYACEMQRIARYLGVSNGNMQEGSLRCDVNISIRPIGQAEFGTKVEIKNLNAFSAISRAIDFEISRQALLYNQGKADQIVTETRLWEEGAQKTVTMRKKEGLADYRYFPEPDLPEVILTQEYVDSIRASLPELPEAKRRRYEAMGLGMQDVLFLANDVSVAEYFDAVIGKGAEVKLAANWIMSDIAAYLKNEKLSINDIKLTPQELAELIAAIKDGTISGKIGKEILFELLAKGGTVKGMIKAKDLVQITDPAEIEKMVIQVVSENPKQLEQYRSGKTKLQGYFAGQVMKMSKGKANPGLLNKILLEKLNAKD", "protein production": "failed"}]}]}
